Experimental data reported in patent publication US20130097717A1, “COMPOSITIONS AND METHODS FOR RE-PROGRAMMING CELLS WITHOUT GENETIC MODIFICATION FOR TREATMENT OF CARDIOVASCULAR DISEASES” (VIVOSCRIPT, INC., priority 2010, published 2013).

Experiments:
PBMC/mono- (T cells) = assay: Reprogramming of T cells to Treg cells, flow cytometry of CD4 and CD25 in PBMC lacking CD14 monocytes; type: cell-based, human; details: 10, 20 or 50 μg/ml
Description: 100 ml of healthy human blood was collected from a donor and the peripheral blood mononuclear cells (PBMCs) were isolated by density-gradient centrifugation using Histopaque-1077 (Sigma-Aldrich, St Louis, Mo.). CD14+ monocytes were removed by magnetic bead selection (Miltenyi Biotec, Auburn, Calif.). Briefly, […] PBMCs were incubated with 200 μL anti-CD14 microbeads (Miltenyi Biotec) in ice for 30 minutes. The cells were washed with cold 1×PBS with 2% FCS and centrifuged at 300 g for 10 minutes and then resuspended in 1×PBS with 2% FCS. The cell suspension was applied to the magnetic column and unbinding cells were passed through by washing 3 times with 1×PBS with 2% FCS. The PBMC/mono- were harvested by centrifuged at 300 g for 10 minutes.
The PBMC/mono- were cultured in 6-well plates (Becton Dickinson, Gaithersburg, Md.) supplemented with 10% FBS, nonessential amino acids, 2 mM glutamine, 1 mM sodium pyruvate, 25 mM HEPES, 200 units/ml penicillin, and streptomycin at 37° C. and 5% CO2. After 1 hour of culture, His6-Foxp3-11R (10 μg/ml, 20 μg/ml, or 50 μg/ml) was added to the cells. BSA (100 μg/ml) was added to another well as control. Same concentration of His6-Foxp3-11R or BSA was added after cultured for two days. After 5 days of culture, the cells were washed with PBS twice. The cells were re-suspended in 100 μL diluted and added rabbit anti-human CD25 for 90 minutes. […]

PBMC (T cells) = assay: Reprogramming of T cells to Treg cells, flow cytometry of CD4 and CD25 in PBMC; type: cell-based, human; details: 10, 50 or 100 μg/ml
Description: 100 ml of healthy human blood was collected from a donor and the peripheral blood mononuclear cells (PBMCs) were isolated by density-gradient centrifugation using Histopaque-1077 (Sigma-Aldrich, St Louis, Mo.). The PBMC/mono^− were cultured in […] plates (Becton Dickinson, Gaithersburg, Md.) supplemented with 10% FBS, nonessential amino acids, 2 mM glutamine, 1 mM sodium pyruvate, 25 mM HEPES, 200 units/ml penicillin, and streptomycin at 37° C. and 5% CO2. After 1 hour of culture, Foxp3 (10 μg/ml, 50 μg/ml, 100 μg/ml) were added to the cells. BSA (100 μg/ml) was added to another well as control. Same concentration of the Foxp3 or BSA was added after cultured two days. Following 5 days of culture, the cells were washed with PBS twice. The cells were re-suspended in 100 μL diluted and added rabbit anti-human CD25 for 90 minutes. The cells were washed three time with cold 1×PBS supplied 2% FBS and then the conjugated-PE mouse anti-human CD4 as well as conjugated-FITC goat anti-rabbit IgG were added to the cells for 60 minutes in ice. Conjugated-PE mouse IgG and rabbit IgG were incubated with another group cells as Isotype control. The cells were washed with PBS for flow cytometric analysis using a Beckman Coulter FC500 cytometer with Cytomics CXP software (Beckman Coulter, Fullerton, Calif.) (FIGS. 14-17).

[1] = added again after two days, 5 days of culture

B1: His6-Foxp3-11R: His6-tagged Foxp3 fused to 11R, SEQ ID NO: 33 (protein)
chain: MGSSHHHHHHSSGLVPRGSHMPNPRPGKPSAPSLALGPSPGASPSWRAAPKASDLLGARGPGGTFQGRDLRGGAHASSSSLNPMPPSQLQLPTLPLVMVAPSGARLGPLPHLQALLQDRPHFMHQLSTVDAHARTPVLQVHPLESPAMISLTPPTTATGVFSLKARPGLPPGINVASLEWVSREPALLCTFPNPSAPRKDSTLSAVPQSSYPLLANGVCKWPGCEKVFEEPEDFLKHCQADHLLDEKGRAQCLLQREMVQSLEQQLVLEKEKLSAMQAHLAGKMALTKASSVASSDKGSCCIVAAGSQGPVVPAWSGPREAPDSLFAVRRHLWGSHGNSTFPEFLHNMDYFKFHNMRPPFTYATLIRWAILEAPEKQRTLNEIYHWFTRMFAFFRNHPATWKNAIRHNLSLHKCFVRVESEKGAVWTVDELEFRKKRSQRPSRCSNPTPGPESGGGGSPGRRRRRRRRRRR
modifications: transducible material
dose dependence of the increase of CD4+CD25+T cells (PBMC/mono- (T cells)): protein-dose dependent
CD4+CD25+T cells (Treg cells) (PBMC/mono- (T cells); [1]): dramatically increased
dose dependence of the increase of CD4+CD25+T cells (PBMC (T cells)): protein-dose dependent
CD4+CD25+T cells (Treg cells) (PBMC (T cells); [1]): dramatically increased
